According to US8440430, “Modified dicer polypeptide and methods of use thereof” (The Regents of the University of California):

Biological target: T1, ΔDEAD human Dicer (lacks DExD/H-box domain, aa 1-604 deleted) (Homo sapiens, UniProt Q9UPY3 SEQ:1-1318)
T1 chain: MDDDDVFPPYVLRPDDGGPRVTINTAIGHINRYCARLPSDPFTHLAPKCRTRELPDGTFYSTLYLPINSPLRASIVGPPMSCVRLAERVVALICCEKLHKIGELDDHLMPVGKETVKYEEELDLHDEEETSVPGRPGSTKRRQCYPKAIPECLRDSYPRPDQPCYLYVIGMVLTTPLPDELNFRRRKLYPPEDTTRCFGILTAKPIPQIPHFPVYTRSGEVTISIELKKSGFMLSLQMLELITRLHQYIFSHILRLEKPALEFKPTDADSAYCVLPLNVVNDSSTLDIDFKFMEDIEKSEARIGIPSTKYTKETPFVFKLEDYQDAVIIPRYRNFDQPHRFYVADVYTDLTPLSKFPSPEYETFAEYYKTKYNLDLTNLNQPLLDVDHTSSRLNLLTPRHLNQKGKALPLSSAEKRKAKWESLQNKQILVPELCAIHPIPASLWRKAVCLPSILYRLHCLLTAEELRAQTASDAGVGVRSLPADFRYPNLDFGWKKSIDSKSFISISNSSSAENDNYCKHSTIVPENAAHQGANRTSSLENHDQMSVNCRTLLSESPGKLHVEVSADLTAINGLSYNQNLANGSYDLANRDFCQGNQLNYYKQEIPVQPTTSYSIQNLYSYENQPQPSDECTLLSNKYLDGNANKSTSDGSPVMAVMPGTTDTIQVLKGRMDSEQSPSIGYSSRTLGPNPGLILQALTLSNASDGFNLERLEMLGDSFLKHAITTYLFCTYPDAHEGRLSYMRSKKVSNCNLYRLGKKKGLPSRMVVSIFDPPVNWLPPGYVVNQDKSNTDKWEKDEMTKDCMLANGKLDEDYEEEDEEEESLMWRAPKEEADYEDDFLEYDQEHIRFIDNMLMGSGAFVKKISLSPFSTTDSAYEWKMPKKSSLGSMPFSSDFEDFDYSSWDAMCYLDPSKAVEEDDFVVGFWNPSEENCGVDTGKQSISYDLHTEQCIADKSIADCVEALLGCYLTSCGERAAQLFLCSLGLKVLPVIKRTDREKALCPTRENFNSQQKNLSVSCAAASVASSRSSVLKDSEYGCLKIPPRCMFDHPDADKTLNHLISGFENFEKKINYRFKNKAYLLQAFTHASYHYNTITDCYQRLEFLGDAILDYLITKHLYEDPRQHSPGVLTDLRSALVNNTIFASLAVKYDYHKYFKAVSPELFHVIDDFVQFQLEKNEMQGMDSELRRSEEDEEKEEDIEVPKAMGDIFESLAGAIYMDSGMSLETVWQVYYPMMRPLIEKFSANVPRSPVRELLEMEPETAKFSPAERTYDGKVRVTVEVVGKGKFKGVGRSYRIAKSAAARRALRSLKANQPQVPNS
Test: filter; within three-fold of full-length; 5 mM EDTA; exact Kd only in figure
Conditions: tags: N-terminal His6 removed by site-specific protease, baculovirus/Sf9
Procedure: After dried, the bound (on Protran) or free (on Nytran) RNAs were detected and quantified with Phosphoimager (GE Healthcare). Percentage of bound RNAs was calculated by 100 multiplied by the ratio of radioactivity (volumes) detected on the Protran membrane over the total input volumes (radioactivity). The bound RNAs (%) (Y-axle) were plotted against protein concentrations (X-axle). K_d was determined by global fitting to the equation of kobsd = (kmax ×[Dicer])(K_{1/2} + [Dicer])^-1, here $kobsd$ is the observed rate constant at a particular protein concentration, $kmax$ is the maximal rate constant with saturating protein, and K_{1/2} (or K_d) is the protein concentration that provides half the maximal rate. Curve fitting was conducted with KleidaGraph (Synery Software).
RNA. […] These values are similar to those measured previously (Provost et al, 2002; Vermeulen et al, 2005). […] The protein lacking both the DExD/H-box domain and the dsRBD (2DD) bound ~3-4 fold more weakly to either substrate relative to full-length Dicer (FIG. 3A-C). It is possible that this severely truncated protein is generally destabilized, or that the DExD/H-box domain plays a small but measurable role in substrate binding.

B1: 37ab duplex RNA (dsRNA)
RNA 1: UGAGGUAGUAGGUUGUAUAGUUUGAAAGUUCACGAUU
RNA 2: UCGUGAACUUUCAAACUAUACAACCUACUACCUCAUU
Kd relative to full-length Dicer (fold) (label: 5'-32P on one strand, perfect duplex with 2-nt 3' overhangs on both ends): ≤ 3 fold of full-length Kd (75 nM)

B2: pre-hlet-7 hairpin RNA (ssRNA)
RNA: UGAGGUAGUAGGUUGUAUAGUUUUAGGGUCACACCCACCACUGGGAGAUAACUAUACAAUCUACUGUCUUACC
Kd relative to full-length Dicer (fold) (label: 5'-32P, hairpin): ≤ 3 fold of full-length Kd (30 nM)
